Results reported in publication PMC8760513, “Mechanistic details of the actinobacterial lyase-catalyzed degradation reaction of 2-hydroxyisobutyryl-CoA” (The Journal of Biological Chemistry, 2021).

Biological target: the molecule itself
Assay: crystal structure; sitting drop co-crystals of 10 mg/ml protein with 1 mM 2-HIB-CoA, 5 mM ADP, 5 mM MgCl2 and 5 mM dzThDP (or ThDP for the intermediate/product state); tetramer described as a dimer of dimers

Protein	stoichiometry N	binding result
2-hydroxyacyl-CoA lyase from Actinomycetospora chiangmaiensis (WT AcHACL) (enzyme, 2-hydroxyacyl-CoA lyase (AcHACL) of Actinomycetospora chiangmaiensis DSM 45062; residues up to 590 are named in the text; Crystallised with 2-HIB-CoA and dzThDP (7PT1) or ThDP (7PT4); also called actinobacterial 2-hydroxyacyl-CoA lyase) MADRQDAERSGAGPARQSVPVASLVAEFLQEHGVDRVFGLQGGHIQPIWDQLARRGVRIVDVRDEGSAVHMAHAHTELTGQTAVAMVTAGPGVTNTVTAVANASVSRIPLLVIGGCPPIPQSNMGPLQDIPHTAILEPITRLARTLRSADQVLREFDEAWARASGDRGEPGPVYLEIPTDVLRRDVPPALQMREHLRAKPKRRPQPHPDDVAAVADLIRAAEKPAIISGRGARTTDGTDLVRLLDASGAAYLDTQESRGLVPDSHPAAVGSARSAVMRDTDLLITVGRQLDYQLGMGSPAVFPHAKVVRIADTASELIDNRRGEVEILAEPGAALAAIADALKDHTPDTSWRDELKAKHRKRAEDYRQALHSTENGADGHIHPNRIFGALDALDGDVLDLGETIMIADGGDLLSFGRLGITKARRYLDAGAFGCLGVATPFAIGAALAYPDRPVVAVTGDGAFGITATEIDTAVRHDAKIVVIVSNNRAWNIERYDQAENYGLVVGTDLADSDYAGVARAFGAHGERVTDPAELEGAIRRALANAPALVDVVTTQDAASPDSGKGLGFVPDYQALTPWNDAEVARRQEGI	4	
AcHACL E493Q mutant (enzyme, 2-hydroxyacyl-CoA lyase (AcHACL) of Actinomycetospora chiangmaiensis DSM 45062 with E493Q, made by site-directed mutation of the WT construct in pASG-IBA43; it says that the overall structure is identical to the WT (tetramer); source: same protocol as WT)) MADRQDAERSGAGPARQSVPVASLVAEFLQEHGVDRVFGLQGGHIQPIWDQLARRGVRIVDVRDEGSAVHMAHAHTELTGQTAVAMVTAGPGVTNTVTAVANASVSRIPLLVIGGCPPIPQSNMGPLQDIPHTAILEPITRLARTLRSADQVLREFDEAWARASGDRGEPGPVYLEIPTDVLRRDVPPALQMREHLRAKPKRRPQPHPDDVAAVADLIRAAEKPAIISGRGARTTDGTDLVRLLDASGAAYLDTQESRGLVPDSHPAAVGSARSAVMRDTDLLITVGRQLDYQLGMGSPAVFPHAKVVRIADTASELIDNRRGEVEILAEPGAALAAIADALKDHTPDTSWRDELKAKHRKRAEDYRQALHSTENGADGHIHPNRIFGALDALDGDVLDLGETIMIADGGDLLSFGRLGITKARRYLDAGAFGCLGVATPFAIGAALAYPDRPVVAVTGDGAFGITATEIDTAVRHDAKIVVIVSNNRAWNIQRYDQAENYGLVVGTDLADSDYAGVARAFGAHGERVTDPAELEGAIRRALANAPALVDVVTTQDAASPDSGKGLGFVPDYQALTPWNDAEVARRQEGI		binds
AcHACL E493A mutant (enzyme, 2-hydroxyacyl-CoA lyase (AcHACL) of Actinomycetospora chiangmaiensis DSM 45062 with E493A, made by site-directed mutation of the WT construct in pASG-IBA43; it says that the overall structure is identical to the WT (tetramer); also called alanine mutant; source: same protocol as WT)) MADRQDAERSGAGPARQSVPVASLVAEFLQEHGVDRVFGLQGGHIQPIWDQLARRGVRIVDVRDEGSAVHMAHAHTELTGQTAVAMVTAGPGVTNTVTAVANASVSRIPLLVIGGCPPIPQSNMGPLQDIPHTAILEPITRLARTLRSADQVLREFDEAWARASGDRGEPGPVYLEIPTDVLRRDVPPALQMREHLRAKPKRRPQPHPDDVAAVADLIRAAEKPAIISGRGARTTDGTDLVRLLDASGAAYLDTQESRGLVPDSHPAAVGSARSAVMRDTDLLITVGRQLDYQLGMGSPAVFPHAKVVRIADTASELIDNRRGEVEILAEPGAALAAIADALKDHTPDTSWRDELKAKHRKRAEDYRQALHSTENGADGHIHPNRIFGALDALDGDVLDLGETIMIADGGDLLSFGRLGITKARRYLDAGAFGCLGVATPFAIGAALAYPDRPVVAVTGDGAFGITATEIDTAVRHDAKIVVIVSNNRAWNIARYDQAENYGLVVGTDLADSDYAGVARAFGAHGERVTDPAELEGAIRRALANAPALVDVVTTQDAASPDSGKGLGFVPDYQALTPWNDAEVARRQEGI		binds
